Reference: patent US8710032B2, “Inhibitors of the mevalonate pathway of Streptococcus pneumoniae” (Northwestern University, priority 2006, dated 2014)

Substrate: Nc1ncnc2c1ncn2[C@@H]1O[C@H](COP(=O)(O)OP(=O)(O)OP(=O)(O)O)[C@@H](O)[C@H]1O
Assay: Initial substrate results of analogues with mevalonate kinase (FIG. 8)
Assay type: biochemical, Streptococcus pneumoniae
Conditions: other: ATP
Description: FIG. 8. Initial substrate results [analogue] ranged from 2.0-2.5 mM, except #6 (4.2 mM) and #8 (6.2 mM).
A series of compounds related to compounds 4, 5, 23, and 25 can be synthesized as potential competitive or noncompetitive reversible inhibitors of MK and DPM-DC (See, e.g., FIGS. 6-7). The representative synthesis shown (Scheme 4a) is a modification of that shown in Scheme 4, and R is limited only by availability of the corresponding reagent and synthetic technique, as would be understood by those skilled in the art made aware of this invention (e.g., alkyl, vinyl, acetylenyl, aryl, heteroaryl, etc., via Grignard reaction with the corresponding magnesium bromide or chloride).

B1: mevalonate kinase (Streptococcus pneumoniae TIGR4) (protein)
chain: MTKKVGVGQAHSKIILIGEHAVVYGYPAISLPLLEVEVTCKVVPAESPWRLYEEDTLSMAVYASLEYLNITEACIRCEIDSAIPEKRGMGSSAAISIAAIRAVFDYYQADLPHDVLEILVNRAEMIAHMNPSGLDAKTCLSDQPIRFIKNVGFTELEMDLSAYLVIADTGVYGHTREAIQVVQNKGKDALPFLHALGELTQQAEVAISQKDAEGLGQILSQAHLHLKEIGVSSPEADFLVETTLSHGALGAKMSGGGLGGCIIALVTNLTHAQELAERLEEKGAVQTWIESL
  Km: 850 µM
